± gives the uncertainty stated by the source.
Test: protein stability index of a GFP-peptide fusion (yeast GPS) (PSI 1-4); higher = more stable; sorted into four equal gates, so the index is relative within each strain
Summary of the method: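 The protein stability index of a peptide was calculated by multiplying its read frequency in each gate by that gate's number and adding the products. The peptides were tiled 17-residue stretches of yeast proteins, fused downstream of GFP on a Cherry-expressing plasmid and carried in yeast as a pooled library. Mid-log cultures in leucine-free medium were sorted into four equal gates by GFP/Cherry ratio, and each gate's plasmids were PCR-amplified and Illumina-sequenced.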

Row | Sequence | protein stability index (doa10∆) | protein stability index (pdr5∆) | protein stability index (san1∆) | protein stability index (ubr1∆)
1 | CSNPTCGAGVFLANHKD [RPS31] | 3.06 ± 0.12 | 2.82 ± 0.21 | 2.57 ± 0.24 | 2.73 ± 0.14
2 | GWYHSHPGFGCWLSSVD [RPN11] | 2.72 ± 0.12 | 3.09 ± 0.072 | 2.35 ± 0.087 | 2.64 ± 0.12
3 | CTSLMDIIVAIKIFELK [IRR1] | 2.1 ± 0.2 | 1.41 ± 0.16 | 2.13 ± 0.16 | 1.36 ± 0.072
4 | FSLLVKAEIPPEYAKVG [SIN4] | 2.54 ± 0.063 | 2.45 ± 0.045 | 2.52 ± 0.057 | 2.72 ± 0.036
5 | ENDTTLVKTKELIKNYI [FAS1] | 3.04 ± 0.13 | 2.85 ± 0.15 | 2.83 ± 0.13 | 2.68 ± 0.058
6 | GRMDMTRLYDYEIRDID [SSN2] | 3.29 ± 0.24 | 2.94 ± 0.15 | 3.38 ± 0.074 | 3.36 ± 0.096
7 | ELEDVAVKKLYAIIINY [YCS4] | 1.84 ± 0.057 | 1.97 ± 0.065 | 1.59 ± 0.12 | 1.44 ± 0.031
8 | LSIDKVLKKPNRAMEYD [RET1] | 3.01 ± 0.18 | 2.56 ± 0.16 | 3.18 ± 0.2 | 1.98 ± 0.28
9 | SLHPLFEQFEKFYEEKL [RPN9] | 2.67 ± 0.24 | 2.9 ± 0.16 | – | –
10 | PVDVDFNLDLDDIVSHQ [REC8] | – | 3.4 ± 0.12 | – | –
11 | DQFITSLKCTDPYELKG [ITC1] | 3.02 ± 0.12 | 2.66 ± 0.09 | 2.78 ± 0.088 | 2.95 ± 0.1
12 | LYRLSTPLRDEVTDKNY [PRP8] | 3.13 ± 0.096 | 2.88 ± 0.066 | 3.02 ± 0.067 | 3.11 ± 0.059
13 | GSKMEAKNEDDPAHSLN [AAR2] | 2.34 ± 0.14 | 1.27 ± 0.13 | 1.23 ± 0.26 | 1.14 ± 0.15
14 | TRTIKQNNFHVLIDLLN [RGR1] | 1.75 ± 0.079 | 1.62 ± 0.13 | 1.87 ± 0.15 | 1.86 ± 0.12
15 | ERAARVAAKIAALAGQQ [RPL5] | 2.71 ± 0.13 | 3.03 ± 0.17 | 2.57 ± 0.15 | 3.11 ± 0.079
16 | NDSKEESTTEATGNESQ [YLR335W/NUP2] | – | 3.14 ± 0.18 | 2.97 ± 0.22 | 3.35 ± 0.1
17 | MTIDLEPIEESSQNNSE [IRR1] | 2.94 ± 0.068 | 3.14 ± 0.056 | 2.67 ± 0.11 | 3.09 ± 0.059
18 | VPVANQFINLAGYKKLG [QCR7] | 1.97 ± 0.14 | 2.5 ± 0.13 | 1.94 ± 0.17 | 2.48 ± 0.11
19 | MKTQRFVSNMGFDIQKS [SIR4] | 2.63 ± 0.069 | 2.24 ± 0.058 | 2.5 ± 0.083 | 2.01 ± 0.04
20 | EEVNRCYLRWQHLRNEH [SNF2] | 3.27 ± 0.07 | 3 ± 0.075 | 3.23 ± 0.071 | 3.05 ± 0.075
21 | SDIPKTTVQVAEEAIVN [PRE4] | 2.92 ± 0.12 | 2.72 ± 0.09 | 1.81 ± 0.28 | 2.54 ± 0.091
22 | QNPLNKSQNTALPSTHK [SIR4] | 2.62 ± 0.048 | 2.88 ± 0.049 | 2.33 ± 0.058 | 2.76 ± 0.037
23 | EFLKWTPNVNVLVLHGD [ISW2] | 1.69 ± 0.064 | 1.69 ± 0.06 | 1.53 ± 0.12 | 1.84 ± 0.082
24 | VVSTDLESIQKTKEAVA [RPL4A] | 2.95 ± 0.072 | 3.12 ± 0.083 | 2.9 ± 0.08 | 2.82 ± 0.063
25 | ATTGGGLFGNKPNNTAN [YGL172W/NUP49] | 3.62 ± 0.25 | 3.29 ± 0.21 | 3.66 ± 0.083 | 3.54 ± 0.18
26 | GDKFSEDFRIQFKTTIK [UBP6] | 3.14 ± 0.1 | 2.93 ± 0.09 | 2.32 ± 0.087 | 2.58 ± 0.059
27 | QQQQQQQQQQQNNSTGS [SSN2] | 2.58 ± 0.06 | 2.78 ± 0.049 | 2.52 ± 0.11 | 2.85 ± 0.065

Row | Sequence | protein stability index (doa10∆) | protein stability index (pdr5∆) | protein stability index (san1∆) | protein stability index (ubr1∆)
28 | HLIPNEIKGASETPLQK [RPN4] | – | 1.57 ± 0.12 | 1.55 ± 0.13 | 1.91 ± 0.11
29 | DQNPIQVVVDAITNTGP [RPS5] | 2.35 ± 0.053 | 2.79 ± 0.041 | 2.76 ± 0.061 | 2.13 ± 0.041
30 | EALQYDPQPFLKHVLQL [SNU114] | 2.17 ± 0.04 | 2.53 ± 0.047 | 2.35 ± 0.075 | 2.65 ± 0.038
31 | FLRPTYPDLCSIYDKWT [RPN1] | 2.83 ± 0.064 | 2.82 ± 0.059 | 2.35 ± 0.069 | 2.47 ± 0.046
32 | DGKLEPSTRSNFILEVF [YJL039C/NUP192] | 1.63 ± 0.081 | 1.61 ± 0.067 | 1.92 ± 0.14 | 1.33 ± 0.069
33 | DDPTQLVSRGGCGNTQP [RPO21] | 3.18 ± 0.12 | 2.55 ± 0.19 | 2.97 ± 0.11 | 3.04 ± 0.088
34 | IEWAEHHRDSNFPDEDD [SKP1] | 3.1 ± 0.065 | 3.17 ± 0.059 | 3.08 ± 0.046 | 3.33 ± 0.057
35 | VQVRSVMDPITSKRKAE [DIS3] | 2 ± 0.13 | 2.41 ± 0.13 | 2.92 ± 0.079 | 2.79 ± 0.12
36 | PLGILHIPICVTFSFFN [RRP45] | 1.29 ± 0.05 | 1.26 ± 0.06 | 1.2 ± 0.096 | 1.12 ± 0.045
37 | EGSTIRYLAVTLQDIGF [YMR129W/POM152] | 2.5 ± 0.048 | 2.58 ± 0.04 | 2.52 ± 0.052 | 2.71 ± 0.041
38 | SILVIVQKILPLSNEVF [SWI1] | 1.37 ± 0.045 | 1.34 ± 0.039 | 1.3 ± 0.073 | 1.56 ± 0.037
39 | PNFFLTLISENWWHSEF [BRR2] | 2.8 ± 0.22 | 2.27 ± 0.11 | 2.59 ± 0.092 | 2.85 ± 0.25
40 | LVSVVEAFIASGITDPY [FAS2] | 1.42 ± 0.041 | 1.39 ± 0.042 | 1.67 ± 0.072 | 1.85 ± 0.035
41 | MDVDIGCYFEEKRYDDK [CSN12] | 3.42 ± 0.087 | 3.19 ± 0.15 | 3.01 ± 0.11 | 3.33 ± 0.15
42 | LRSTIANLLQINVDNDP [YML103C/NUP188] | 2.21 ± 0.1 | 1.4 ± 0.13 | – | 1.15 ± 0.15
43 | DEHNELMRQALAIKDSK [RPO21] | 2.61 ± 0.05 | 2.93 ± 0.063 | 2.29 ± 0.058 | 2.91 ± 0.044
44 | SQLAQVAAFVNNYPNVE [BRR2] | 2.33 ± 0.064 | 2.63 ± 0.068 | 2.68 ± 0.067 | 2.76 ± 0.051
45 | KDILNLASEVGDPALVY [ECM29] | 2.87 ± 0.09 | 3.15 ± 0.12 | 3.39 ± 0.066 | 2.87 ± 0.076
46 | AKGLVAYHQKYVDEQSK [RPS16A] | 2.03 ± 0.085 | 2.12 ± 0.056 | 2.52 ± 0.089 | 1.11 ± 0.034
47 | VEDALDKDSTKEVASLP [FAS2] | 3.15 ± 0.13 | – | 3.12 ± 0.12 | –
48 | QPKDLRAKKTRALRRAL [RPL35A] | – | – | – | 3.1 ± 0.15
49 | LKHVLQLIFRQQTGLVD [SNU114] | 1.23 ± 0.075 | 1.58 ± 0.076 | 1.68 ± 0.12 | 1.2 ± 0.049
50 | TFSGALGKQSSSLLSRL [FAS2] | 3.33 ± 0.097 | 3.23 ± 0.087 | 3.22 ± 0.065 | 2.93 ± 0.073
51 | LNVVLDDAMEINGEDPA [SMX2] | 3.35 ± 0.067 | 3.31 ± 0.07 | 3.46 ± 0.039 | 3.2 ± 0.067
52 | DRRKARKAYFTAPSSER [RPL26B] | 2.77 ± 0.17 | 2.72 ± 0.16 | 3.12 ± 0.082 | 3.1 ± 0.14
53 | IVHHPYQSLKQIVQVLK [SSN8] | 1.24 ± 0.061 | 1.58 ± 0.099 | 1.18 ± 0.14 | 1.25 ± 0.072
54 | DSLKKLLPQWDDDQIES [ARP9] | 3.32 ± 0.14 | 3.17 ± 0.087 | 2.83 ± 0.071 | 3.17 ± 0.081
